Tested on: MS2 coat protein
Test: apparent KD of MS2 coat protein; designed switch direction (-1 OFF switch, 1 ON switch): -1; higher = weaker reporter binding
Procedure, shortened: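 Stalled E. coli RNA polymerase transcribed designed RNA switches on Illumina chips, which were then titrated with SNAP-549-labelled MS2 coat protein, doubling from 0.7 or 1.5 nM to 3 µM. Steps lasted from 0.8–1.5 h at the lowest concentration to 10–20 min at the highest. The apparent KD is each design's median over clusters of curve-fitted normalised fluorescence.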

[1] = input ligand: microRNA oligo, concentration not stated
[2] = Eterna round: R95, input ligand: FMN 200 uM
[3] = Eterna round: R95, input ligand: microRNA oligo, concentration not stated
[4] = Eterna round: R95, input ligand: none

Sequence | apparent KD of MS2 coat protein (input ligand: FMN 200 uM) [µM] | apparent KD of MS2 coat protein [1] [µM] | apparent KD of MS2 coat protein (input ligand: none) [µM] | apparent KD of MS2 coat protein [2] [µM] | apparent KD of MS2 coat protein [3] [µM] | apparent KD of MS2 coat protein [4] [µM]
UUAGUAUUGCAAGGAUAUGUUUAUGUUUAUUUUCCUCUUACAUGAGGAUCACCCAUGUUUAACUUACAGAAGGUGCUAUGAUUU [JR_ExcNG2_Sub032] (Eterna round: R96, puzzle: Exclusion NG 2) | 1.12 | 0.477 | 1.03 | – | – | –
CGGUGACAUGAGGAUCACCCAUGUUAGGAUAUGACUUCGUACGCGAACAGGUAUGGAGUCAGAAGGAGCAUCCA [Eternabot (Original) Solution 45] (Eterna round: R97, puzzle: Exclusion 1) | 0.0806 | – | 0.0384 | – | – | –
CGUGUGCAGUAGGAUAUCCAAAUCCUGUGGAUAGGAGAAGGACUGACAUGAGGAUCACCCAUGUGGGUAAAGAC [Velaxediza] (puzzle: Exclusion 6) | – | – | – | 0.0488 | 0.0637 | 0.0577
GCAAGCUUUUUGGUUUUCAACAUGAGGAUCACCCAUGUUCGUCUUAUACCCGGGCCCGGGCGGUGCCCGGGCCCGGG [-40, -68 kcal, A 14%] (Eterna round: R97, puzzle: Sensor, turn-off variant 1) | 0.0182 | – | 0.0217 | – | – | –
UGUCUUGCAGGAUAUCAUGUGAUAUACAUGAGGAUCACCCAUGUUAGCCUCAUGAGCGUCUGAGAAGGGUAAGACG [Eternabot (L2) Solution 22] (Eterna round: R97, puzzle: Exclusion 5) | 0.131 | – | 0.0401 | – | – | –
GUAGAGUCAGGAUAUACGAGAUCGAAAGAUCGGCGAUCCAUACAUGAGGAUCACCCAUGUAGAAGGGACUCUAC [ChP 11-04-2015 #5] (Eterna round: R96, puzzle: Exclusion 2) | 0.177 | 0.0148 | 0.0191 | – | – | –
AAAGAACAUGAGGAUCACCCAUGUAAGGAUAUCCAAAAGAAGGAAAGAAAGAAAAGAAGGAGAAGGUACAAGAA [JR_Exclu1_Sub041] (puzzle: Exclusion 1) | – | – | – | 0.0335 | 0.0607 | 0.0845
GGCUGCAAUGUAGGAUAUCUGCACGAUUAGUGCAGAGAAGGACAUGAGGAUCACCCAUGUAUAGUAGCUUCGGCUACAGCAGCC [ENG1-D1] (Eterna round: R96, puzzle: Exclusion NG 1) | 0.0171 | 0.0142 | 0.0156 | – | – | –
AGCAAGCUUUAAAGAUCCUACAUGAGGAUCACCCAUGUGCUCGUCUUAUAACGUACUGUGACGAAAGUCACGGUACG [JL TOV1 3.33] (Eterna round: R97, puzzle: Sensor, turn-off variant 1) | 0.357 | – | 0.603 | – | – | –
CAGUACUGAGGAUAUACAUGAGGAUCACCCAUGUGUUCCGGCUAGGAUACUAGCAAAGGUAGAAGGCAGUACUG [Mat - Exclusion 3 - Eli Mod - D22] (Eterna round: R97, puzzle: Exclusion 3) | 0.458 | – | 0.0354 | – | – | –
ACAUGUUAUCCAUGAUAUCACAUGAGGAUCACCCAUGUUAAGGCGAUUUUGAGGUGUAAGCUUUGUGCUCGACUUAU [JR_STOV1_Sub055] (Eterna round: R97, puzzle: Sensor, turn-off variant 1) | 0.107 | – | 0.0788 | – | – | –
UUGUACAGAGGAUAUACAUGAGGAUCACCCAUGUGUUUCAGCUAGGAGACUAGCGAAAGUAGAAGGCUGUACUC [salish99_ex3_r4_015] (Eterna round: R97, puzzle: Exclusion 3) | 0.0239 | – | 0.0111 | – | – | –
CGCCUCAGCACAUGAGGAUCACCCAUGUACAAAAGUCCCAGGGAGGAUAUCUGCUGGUUGACUAGAGAGAAGGCCCAUACUAAC [Eternabot solution 45] (Eterna round: R96, puzzle: Exclusion NG 3) | 0.0426 | 0.0366 | 0.045 | – | – | –
UAGUAGCAAGGAUAUACAGAGGAGAGGAAAGCAAGAGGAGGACAUGAGGAUCACCCAUGUAGAAGGUGCAGAGA [JR_Exclu2_Sub020] (puzzle: Exclusion 2) | – | – | – | 0.0746 | 0.0739 | 0.0666
UAAUAUAGUGUGAGGAUAUGCUGGUCCUUGGAUCAGCAGAAGGCACAUGAGGAUCACCCAUGUAGUUUAUUUUA [Mat - Exclusion 4 - JL Mod - D2] (puzzle: Brourd's mod of Exclusion 4) | – | – | – | 0.141 | 0.0282 | 0.0283
CCUCCACAUGAGGAUCACCCAUGUGAGGAUAUCCUGCGAGGAUCAAAAGAUCCUCGUGGGAGAAGGCACAUGAA [Omei Ex1 A9] (Eterna round: R97, puzzle: Exclusion 1) | 0.241 | – | 0.0393 | – | – | –
GGACAUUCGGUAAGGAUAUUGACCCAACCUAGGAUCAAGAAGGUACAUGAGGAUCACCCAUGUCAGAUCCGUCA [Eternabot (Original) Solution 34] (Eterna round: R97, puzzle: Brourd's mod of Exclusion 4) | 0.0274 | – | 0.016 | – | – | –

Sequence | apparent KD of MS2 coat protein (input ligand: FMN 200 uM) [µM] | apparent KD of MS2 coat protein [1] [µM] | apparent KD of MS2 coat protein (input ligand: none) [µM] | apparent KD of MS2 coat protein [2] [µM] | apparent KD of MS2 coat protein [3] [µM] | apparent KD of MS2 coat protein [4] [µM]
AGGUAACAUGAGGAUCACCCAUGUCAGGAUAUCAGUAAGAUGAGGAUAGAAUAGAGUAUGAGAAGGGACUAUAU [Excluse me! 22 - Jieux - Exclusion 1] (puzzle: Exclusion 1) | – | – | – | 0.034 | 0.0385 | 0.0476
GAAUAGCGAGGAUAUGCAAUGAAGAUCGUACGAUAUGGCUGACAUGAGGAUCACCCAUGUAGAAGGCGCUGAUC [EX2 #14] (Eterna round: R97, puzzle: Exclusion 2) | 0.0551 | – | 0.0537 | – | – | –
AUUAUAUAGACAGGAUAUUGAUUAUUAUUUUAACAUGAGGAUCACCCAUGUAGCCUUAUGUAUAGCAAGAAGGGUCAUUUAUUA [Title] (Eterna round: R96, puzzle: Exclusion NG 2) | – | 0.122 | – | – | – | –
GGAAGGUGAGGAUAUACUAAGCCGGAAACGGCAGGUGGGAGACAUGAGGAUCACCCAUGUAGAAGGCACGGAGA [AK-MS2ROC-r4-exclusion2-18] (Eterna round: R97, puzzle: Exclusion 2) | 0.703 | – | 0.113 | – | – | –
UGAAAAGACCUAGGAUAUACCCAGUGGGUAGAGGGUCAGAAUAAUAAAACAUGAGGAUCACCCAUGUAGAAGGAGGGAAAGAAG [Laerxe] (Eterna round: R96, puzzle: Exclusion NG 2) | 0.0483 | 0.042 | 0.0593 | – | – | –
AAAAUAAAAGCAGGAUAUCGACCUCCCAAGUGGCGAGAAGGGCUAGACGGGCGGUCUAACAUGAGGAUCACCCAUGUCAACAAA [Soorante] (Eterna round: R96, puzzle: Exclusion NG 1) | 0.0934 | 0.0235 | 0.0347 | – | – | –
UUUUAACAUGAGGAUCACCCAUGUGAGGAUAUCGAAAUUUAUAUUAAUAUUAAUAUUACGAGAAGGCACAUUUU [JMF 26] (puzzle: Exclusion 1) | – | – | – | – | 0.077 | –
ACAUGGGAGCGAGGAUAUAGCCCAUGUGAAGAACUAGAAGGCGCAGACAUGAGGAUCACCCAUGUGUUCAUGAGGAGGUGGACA (Eterna round: R96, puzzle: Exclusion NG 1) | 0.0727 | 0.0424 | 0.0694 | – | – | –
AUUGUUUGAUACCUCUAAUACAUGAGGAUCACCCAUGUUAUCGAGGAUAUGCAGAAUAGAUUAGAGCAGAAGGCGAAGUAAUAU [JR_ExcNG3_Sub026] (Eterna round: R96, puzzle: Exclusion NG 3) | 0.0311 | 0.0133 | 0.0156 | – | – | –
UUUAAUUUUUUUUUUUUACAAGCUUUUUGCUCGUCUUAUACAUGAGGAUCACCCAUGUAGGUGAGGAGUAAAUUAUC [JMF 62] (puzzle: Sensor v3, turn-off variant 2) | – | – | – | 0.0155 | 0.111 | 0.0148
UCGGCGCGAGGAUAUGCGGCUGCUGCUUCGGGCCGUGGCGUACAUGAGGAUCACCCAUGUAGAAGGCGCGCCGC [Apr-15 SS2-40] (puzzle: Exclusion 2) | – | – | – | – | 0.0113 | –
UUGGUGUCAGGAUAUGCUUAAUGUAUUUUAUUAUAAUAUAUACAUGAGGAUCACCCAUGUAGAAGGGACAUUGU [LRO-Excl2-08-Fireball XL5] (Eterna round: R97, puzzle: Exclusion 2) | 0.125 | – | 0.154 | – | – | –
AAUAACAGAGGAUAUACUGUUUUAUGUAUUUAUUAUUUUAAACAUGAGGAUCACCCAUGUAGAAGGCUGAGUAA [JMF 28] (puzzle: Exclusion 2) | – | – | – | – | 0.0226 | –
AGGAUGUGAGGAUAUCCAUCCCGCGAAUGCGGGUAAUAAAUGGAGAAGGCACAUGAGGAUCACCCAUGUGAUGA [Laleatus] (Eterna round: R97, puzzle: Exclusion 4) | 0.978 | – | 0.0478 | – | – | –
AGAUCACAUGAGGAUCACCCAUGUGAGGAUAUGAUACUAUGUACUUCGGUACAUAGUAUCAGAAGGCAUAUGAA [Ex1-3: 73] (puzzle: Exclusion 1) | – | – | – | – | 0.0289 | –
GUUGUGUGAGGAUAUGCCUGGCCGUGAGGCCAGAUUGAGUGGCAGAAGGUACAUGAGGAUCACCCAUGUACGGG [salish99_ex4_4_004] (Eterna round: R97, puzzle: Exclusion 4) | 0.0541 | – | 0.0244 | – | – | –
AGAUAGAGCUGAGGAUAUGAGAAUAGAAAGAAAUCAGAAGGCAGACAUGAGGAUCACCCAUGUGAGUUCUUGAGAUUACAUGGU [Prohibition 43 - Jieux - Exclusion NG 1] (Eterna round: R96, puzzle: Exclusion NG 1) | 0.498 | 0.221 | 0.247 | – | – | –

Source: the supplement of paper PMC9170038
